# Laboratory results from patent publication US20240190960A1 (Chugai, published 2024).
# T1: Biotinylated human CD3εδ heterodimer (Fc-fused human CD3ε / Fc-fused human CD3δ) (human, biotin on the Avi tag (BirA))
# T1 chain 1: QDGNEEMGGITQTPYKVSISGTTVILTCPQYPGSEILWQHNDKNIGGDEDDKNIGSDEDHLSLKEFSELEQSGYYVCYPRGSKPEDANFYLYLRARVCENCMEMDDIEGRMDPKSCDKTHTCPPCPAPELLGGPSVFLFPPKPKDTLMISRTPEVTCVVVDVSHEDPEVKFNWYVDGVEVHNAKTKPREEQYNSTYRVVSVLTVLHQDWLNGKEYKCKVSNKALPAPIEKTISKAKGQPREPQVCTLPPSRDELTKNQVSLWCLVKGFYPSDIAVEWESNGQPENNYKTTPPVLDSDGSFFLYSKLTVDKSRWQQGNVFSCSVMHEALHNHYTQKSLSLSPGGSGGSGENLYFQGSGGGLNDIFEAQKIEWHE
# T1 chain 2: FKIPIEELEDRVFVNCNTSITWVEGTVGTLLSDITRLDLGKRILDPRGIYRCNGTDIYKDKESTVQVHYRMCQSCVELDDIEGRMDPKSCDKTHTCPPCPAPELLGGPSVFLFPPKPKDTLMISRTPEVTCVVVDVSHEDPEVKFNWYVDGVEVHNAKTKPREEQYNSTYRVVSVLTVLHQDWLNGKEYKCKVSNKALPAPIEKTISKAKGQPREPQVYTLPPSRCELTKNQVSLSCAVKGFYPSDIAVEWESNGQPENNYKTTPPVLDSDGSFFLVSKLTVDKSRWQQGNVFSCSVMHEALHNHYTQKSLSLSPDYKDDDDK
# Columns and labels:
# [1] = molecular target: T1, Biotinylated human CD3εδ heterodimer …; assay: BLI (Octet RED384), 37 C; biotinylated CD3εδ on streptavidin sensor, one-arm antibody in solution for 120 s (0-1000 nM used, the concentration shown is not given)
# Protocol: Using an Octet RED 384 (ForteBio), a streptavidin sensor (ForteBio) was reacted with CD3εδ prepared at 0.2 μM in ACES at 37° C. for 300 seconds. […] Response values were extracted every three seconds, and graphs were depicted using Microsoft Excel 2013 (Microsoft).
# [2] = molecular target: T2, Human CD3εδ heterodimer (soluble human CD3ε with FLAG tag / soluble human CD3δ with His tag) (human, UniProt P07766 22-126; P04234 22-105); assay: SPR (Biacore T200), BiAb captured on protein A, CD3εδ 0-15000 nM as analyte, 37 C
# T2 construct: Positions are counted from 1, so the entries may include the signal peptides
# Protocol: (3) Evaluation of Binding Properties of Clamping Antibodies by SPR Using an Amine Coupling Kit (GE Healthcare), SuRe Protein A (GE Healthcare) Prepared at 25 μg/mL in Acetate4.5 (GE Healthcare) was Immobilized onto Sensor Chip CM4 at Approximately 1200 RU Per Flow Cell.
# HBS-EP+(GE Healthcare) was used for the running buffer, and the measurement was carried out at 37° C. Each antibody was reacted at a flow rate of 10 μL/min for 60 seconds to capture 1000 RU, and analyte CD3εδ prepared at 0 nM, 4.8 nM, 24 nM, 120 nM, 600 nM, 3000 nM, or 15000 nM was allowed to act at a flow rate of 30 μL/min for 60 seconds to monitor the binding phase, and HBS-EP+ was passed at a flow rate of 30 μL/min for 120 seconds to monitor the dissociation phase. The sensor chip was regenerated by passing Glycine1.5 and 25 mM NaOH, each at a flow rate of 30 μL/min for 30 seconds. The dissociation constant KD (M) was calculated based on the association rate constant ka (1/Ms) and the dissociation rate constant kd (1/s), which are kinetic parameters calculated from the sensorgram obtained by the measurement. Biacore T200 Evaluation Software (GE Healthcare) was used for the calculation of each parameter.
Binder,binding result [1],Kd [2]
"CE115HA000 one arm (CE115HA000-pE22Hh/GLS3000-k0//Kn010) (antibody, human IgG1, kappa, L234A L235A, N297A, also called one-arm antibody CE115HA000) heavy: QVQLVESGGGVVQPGRSLRLSCAASGFTFSNAWMHWVRQAPGKGLEWVAQIKAKSNNYATYYAESVKGRFTISRDDSKNSLYLQMNSLKTEDTAVYYCRYVHYGAYYGVDAWGQGTTVTVSSASTKGPSVFPLAPSSKSTSGGTAALGCLVKDYFPEPVTVSWNSGALTSGVHTFPAVLQSSGLYSLSSVVTVPSSSLGTQTYICNVNHKPSNTKVDKKVEPKSCDKTHTCPPCPAPEAAGGPSVFLFPPKPKDTLMISRTPEVTCVVVDVSHEDPEVKFNWYVDGVEVHNAKTKPREEQYASTYRVVSVLTVLHQDWLNGKEYKCKVSNKALPAPIEKTISKAKGQPREPQVYTLPPSRCELTKNQVSLSCAVKGFYPSDIAVEWESNGQPENNYKTTPPVLDSDGSFFLVSKLTVDKSRWQQGNVFSCSVMHEALHNHYTQKSLSLSPDYKDDDDK light: DIVMTQSPLSLPVTPGEPASISCRSSQSLVHSNRNTYLHWYQQKPGQAPRLLIYKVSNRFSGVPDRFSGSGSGTDFTLKISRVEAEDVGVYYCGQGTQVPYTFGQGTKLEIKRTVAAPSVFIFPPSDEQLKSGTASVVCLLNNFYPREAKVQWKVDNALQSGNSQESVTEQDSKDSTYSLSSTLTLSKADYEKHKVYACEVTHQGLSSPVTKSFNRGEC not shown",binds,–
"BiAb of CE115HA000-BS03a/GLS3000-k0 with the IC17 arm (bispecific antibody, human IgG1, kappa, N297A, how the CE115/IC17 BiAb was made is not described) heavy 1: QVQLVESGGGVVQPGRSLRLSCAASGFTFSNAWMHWVRQAPGKGLEWVAQIKAKSNNYATYYAESVKGRFTISRDDSKNSLYLQMNSLKTEDTAVYYCRYVHYGAYYGVDAWGQGTTVTVSSASTKGPSVFPLAPSSRSTSESTAALGCLVKDYFPEPVTVSWNSGALTSGVHTFPAVLQSSGLYSLSSVVTVPSSSLGTKTYTCNVDHKPSNTKVDKRVEPKSCDKTHTCPPCPAPELRRGPKVFLFPPKPKDTLMISRTPEVTCVVVDVSQEDPEVQFNWYVDGVEVHNAKTKPREEQFASTYRVVSVLTVLHQDWLNGKEYKCKVSNKGLPSSIEKTISKAKGQPREPQVYTLPPSREEMTKNQVSLTCLVKGFYPSDIAVEWESNGQPENNYKTTPPYLDSDGSFFLYSKLTVDKSRWQQGNVFSCSVMHEALHNHYTQESLSLSP light 1: DIVMTQSPLSLPVTPGEPASISCRSSQSLVHSNRNTYLHWYQQKPGQAPRLLIYKVSNRFSGVPDRFSGSGSGTDFTLKISRVEAEDVGVYYCGQGTQVPYTFGQGTKLEIKRTVAAPSVFIFPPSDEQLKSGTASVVCLLNNFYPREAKVQWKVDNALQSGNSQESVTEQDSKDSTYSLSSTLTLSKADYEKHKVYACEVTHQGLSSPVTKSFNRGEC heavy 2: QVQLQQSGPQLVRPGASVKISCKASGYSFTSYWMHWVNQRPGQGLEWIGMIDPSYSETRLNQKFKDKATLTVDKSSSTAYMQLSSPTSEDSAVYYCALYGNYFDYWGQGTTLTVSSASTKGPSVFPLAPSSRSTSESTAALGCLVKDYFPEPVTVSWNSGALTSGVHTFPAVLQSSGLYSLSSVVTVPSSSLGTKTYTCNVDHKPSNTKVDKRVEPKSCDKTHTCPPCPAPELRRGPKVFLFPPKPKDTLMISRTPEVTCVVVDVSQEDPEVQFNWYVDGVEVHNAKTKPREEQFASTYRVVSVLTVLHQDWLNGKEYKCKVSNKGLPSSIEKTISKAKGQPREPQVYTLPPSREEMTKNQVSLTCLVKGFYPSDIAVEWESNGQPENNYKTTPPYLDSDGSFFLYSKLTVDKSRWQQGNVFSCSVMHEALHNHYTQESLSLSP light 2: DIQMTQSSSSFSVSLGDRVTITCKASEDIYNRLAWYQQKPGNAPRLLISGATSLETGVPSRFSGSGSGKDYTLSITSLQTEDVATYYCQQYWSTPYTFGGGTKLEVKRTVAAPSVFIFPPSDEQLKSGTASVVCLLNNFYPREAKVQWKVDNALQSGNSQESVTEQDSKDSTYSLSSTLTLSKADYEKHKVYACEVTHQGLSSPVTKSFNRGEC",–,0.35 µM
"BiAb of CE115HA056-BS03a/GLS3000-k0 with the IC17 arm (bispecific antibody, human IgG1, kappa, N297A, See m38 on the IC17 arm) heavy 1: QVQLVESGGGVVQPGRSLRLSCAASGFTFSNAWMHWVRQAPGKGLEWVAQIKAKSNNYATYYAESVKGRFTISRDDSKNSLYLQMNSLKTEDTAVYYCRYAHYGAYYGVDAWGQGTTVTVSSASTKGPSVFPLAPSSRSTSESTAALGCLVKDYFPEPVTVSWNSGALTSGVHTFPAVLQSSGLYSLSSVVTVPSSSLGTKTYTCNVDHKPSNTKVDKRVEPKSCDKTHTCPPCPAPELRRGPKVFLFPPKPKDTLMISRTPEVTCVVVDVSQEDPEVQFNWYVDGVEVHNAKTKPREEQFASTYRVVSVLTVLHQDWLNGKEYKCKVSNKGLPSSIEKTISKAKGQPREPQVYTLPPSREEMTKNQVSLTCLVKGFYPSDIAVEWESNGQPENNYKTTPPYLDSDGSFFLYSKLTVDKSRWQQGNVFSCSVMHEALHNHYTQESLSLSP light 1: DIVMTQSPLSLPVTPGEPASISCRSSQSLVHSNRNTYLHWYQQKPGQAPRLLIYKVSNRFSGVPDRFSGSGSGTDFTLKISRVEAEDVGVYYCGQGTQVPYTFGQGTKLEIKRTVAAPSVFIFPPSDEQLKSGTASVVCLLNNFYPREAKVQWKVDNALQSGNSQESVTEQDSKDSTYSLSSTLTLSKADYEKHKVYACEVTHQGLSSPVTKSFNRGEC heavy 2: QVQLQQSGPQLVRPGASVKISCKASGYSFTSYWMHWVNQRPGQGLEWIGMIDPSYSETRLNQKFKDKATLTVDKSSSTAYMQLSSPTSEDSAVYYCALYGNYFDYWGQGTTLTVSSASTKGPSVFPLAPSSRSTSESTAALGCLVKDYFPEPVTVSWNSGALTSGVHTFPAVLQSSGLYSLSSVVTVPSSSLGTKTYTCNVDHKPSNTKVDKRVEPKSCDKTHTCPPCPAPELRRGPKVFLFPPKPKDTLMISRTPEVTCVVVDVSQEDPEVQFNWYVDGVEVHNAKTKPREEQFASTYRVVSVLTVLHQDWLNGKEYKCKVSNKGLPSSIEKTISKAKGQPREPQVYTLPPSREEMTKNQVSLTCLVKGFYPSDIAVEWESNGQPENNYKTTPPYLDSDGSFFLYSKLTVDKSRWQQGNVFSCSVMHEALHNHYTQESLSLSP light 2: DIQMTQSSSSFSVSLGDRVTITCKASEDIYNRLAWYQQKPGNAPRLLISGATSLETGVPSRFSGSGSGKDYTLSITSLQTEDVATYYCQQYWSTPYTFGGGTKLEVKRTVAAPSVFIFPPSDEQLKSGTASVVCLLNNFYPREAKVQWKVDNALQSGNSQESVTEQDSKDSTYSLSSTLTLSKADYEKHKVYACEVTHQGLSSPVTKSFNRGEC",–,7.4 µM
"CE115HA056 one arm (CE115HA056-pE22Hh/GLS3000-k0//Kn010) (antibody, human IgG1, kappa, L234A L235A, N297A, One-arm format; also called one-arm antibody CE115HA056) heavy: QVQLVESGGGVVQPGRSLRLSCAASGFTFSNAWMHWVRQAPGKGLEWVAQIKAKSNNYATYYAESVKGRFTISRDDSKNSLYLQMNSLKTEDTAVYYCRYAHYGAYYGVDAWGQGTTVTVSSASTKGPSVFPLAPSSKSTSGGTAALGCLVKDYFPEPVTVSWNSGALTSGVHTFPAVLQSSGLYSLSSVVTVPSSSLGTQTYICNVNHKPSNTKVDKKVEPKSCDKTHTCPPCPAPEAAGGPSVFLFPPKPKDTLMISRTPEVTCVVVDVSHEDPEVKFNWYVDGVEVHNAKTKPREEQYASTYRVVSVLTVLHQDWLNGKEYKCKVSNKALPAPIEKTISKAKGQPREPQVYTLPPSRCELTKNQVSLSCAVKGFYPSDIAVEWESNGQPENNYKTTPPVLDSDGSFFLVSKLTVDKSRWQQGNVFSCSVMHEALHNHYTQKSLSLSPDYKDDDDK light: DIVMTQSPLSLPVTPGEPASISCRSSQSLVHSNRNTYLHWYQQKPGQAPRLLIYKVSNRFSGVPDRFSGSGSGTDFTLKISRVEAEDVGVYYCGQGTQVPYTFGQGTKLEIKRTVAAPSVFIFPPSDEQLKSGTASVVCLLNNFYPREAKVQWKVDNALQSGNSQESVTEQDSKDSTYSLSSTLTLSKADYEKHKVYACEVTHQGLSSPVTKSFNRGEC not shown",binds,–
